Assay: yeast display, Sf9 membrane polyspecificity reagent, FACS + sequencing; frameworks hold sequencing errors
Outline: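 Nanobodies came from a synthetic yeast display library in Saccharomyces cerevisiae BJ5465, induced with galactose for 36–48 hours and stained for 1 hour at 4 °C with 10% biotinylated, detergent-solubilized Sf9 membrane reagent. Cells were enriched on streptavidin microbeads and then FACS-sorted, with low and high (top ~1%) gates set on anti-HA fluorescence for expression and streptavidin fluorescence for reagent binding. Each polyreactivity label reflects the gate a clone came from. Genes were amplified by colony PCR, sequenced by MiSeq 2 × 250 and filtered by CDR length.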

Sequence	polyreactivity (PSR sort gate)
QVQLVESGGGLVQAGGSLRLSCAASGRTFYSYAMGWYRQAPGTERELVAAITSSGGRTYYADSVKGRFTISRDNAKNTVYLQMNSLKPEDTAVYYCAAKWITRRGGDFDYWGQGTQVTVSS	high polyreactivity
QVQLVESGGGLVQAGGSLRLSCAASGRTFYSYSMGWYRQAPGKERELVAAINRSGGRTYYADSVKGRFTISRDNAKNTVYLQMNSLKPEDTAVYYCNALEYYRYDYWGQGTQVTVSS	high polyreactivity
QVQLVESGGGLVQAGGSLRLSCAASGRTFYTNAMGWYRQAPGKERELVAVISRGGTTYYADSVKGRFTISRDNAQNSVSLQMNSLKPDDTAVYYCAKRSPYRYYGYKLRDYWGQGTQVTVSS	low polyreactivity
QVQLVESGGGLVQAGGSLRLSCAASGRTFYTYAMGWYRQAPGKEREFVAAITGSGGSTYYADSVKGRFTISRDNAKNTVYLQLNSLKPEDTAVYYCNARSPGDVWYYYWGQGTQVTVSS	low polyreactivity
QVQLVESGGGLVQAGGSLRLSCAASGRTFYTYAMGWYRQAPGKERELVAAINWSATRTYYADSVKGRFTISRDNAKNTVYLQMNSLKPEDTAVYYCNAVYYRSSYPSGRYGMDYWGQGTQVTVSS	high polyreactivity
QVQLVESGGGLVQAGGSLRLSCAASGRTFYTYAMGWYRQAPGKERELVAAITVTGDSTYYADSVKGRFTISRDNAKNTVYLQMNSLKPEDTAVYYCAADDYDPWYDWTMYYWGQGTQVTVSS	high polyreactivity
QVQLVESGGGLVQAGGSLRLSCAASGRTFYTYAMGWYRQAPGKERELVAAITYRGGNTYYADSVKGRFTISRDNAKNTVYLEMNSLKPEDTAVYYCAATYKRRSGQSFDYWGQGTQVTVSS	high polyreactivity
QVQLVESGGGLVQAGGSLRLSCAASGRTFYTYAMGWYRQAPGKERELVAGIRTGGGSTYYADSVKGRFTISRDNAKYSVYLQMNSLKPDDTAVYYCAADTYDGYDYWGQGSQVTVSS	low polyreactivity
QVQLVESGGGLVQAGGSLRLSCAASGRTFYTYARGWYRQAPGKERELVAAITKRGGSTYYADSVKGRFTISRDYAKNTVYLQMNSLKPEDTAVYYCNQELATARGQSLYRTYSGYGYWGQGTQVTVSS	high polyreactivity
QVQLVESGGGLVQAGGSLRLSCAASGRTFYVNAMGWYRQAPGKERELVASITSGGSTYYADSVKGRFTISRDNAKNTVSLQMNSLKPEDTAVYYCAAGSKDLYRPYDYWGQGTQLTVSS	high polyreactivity
QVQLVESGGGLVQAGGSLRLSCAASGRTFYVYDMGWYREAPGKVRELVAFISSSGSTNYADSVKGRFTISRDNAKYTVYLQMNSLKPEDTAGYYCNKRLIYYRGTYYSRRFDYWGQGTQVTVSS	high polyreactivity
QVQLVESGGGLVQAGGSLRLSCAASGRTFYVYDMGWYRQAPGKERELVAAISNICTRTYYADSVKGRFTISRDNAKNTVYLQMNSLKPEVTAVYYCATGRSRVYKGRGDYWGQGTHVTVSS	high polyreactivity
QVQLVESGGGLVQAGGSLRLSCAASGRTFYVYSMGWYRQAPGKERELVAAITASGGSTYYADSVKGRFTLSRDNAKNTVYLQMHSLKPEDTAVYYCAARVVTRVRGVGYNYWGHGTQVTVSS	high polyreactivity
QVQLVESGGGLVQAGGSLRLSCAASGRTFYVYTMGWYIQAPGKEREMVAGIAYSGGSTYYADSVKGRFTISRDNAKNTVYLQMNSLKPEDTAVYYCNADLYFPYFDGKTRHGGYWGQGTQVTVSS	low polyreactivity
QVQLVESGGGLVQAGGSLRLSCAASGRTFYWNAMGWYRQAPGKERELVAAIRWRGGNTYYADSVKGRFTISRDNAKNTVYLQMNSLKPEDTEVYYCNKYGYKGGVGYDYWGQGTQVTVSS	high polyreactivity
QVQLVESGGGLVQAGGSLRLSCAASGRTFYWYTMGWYRQAPGKERELVAAITYRAGSTYYADSVKGRFTISRDNAKNTVYLQMNSLKPEDTAVYYCNADPPPEYYPDKDNYWGQGTQVTVSS	low polyreactivity
QVQLVESGGGLVQAGGSLRLSCAASGRTFYWYVMGWYRQAPGKERELVAAITQTGSSTYYADSVKGRFTISRDNAKNTVYLQMNSLKPEDTAAYYCADRLSRNHYEVDYWGQGTQVTVSS	low polyreactivity
QVQLVESGGGLVQAGGSLRLSCAASGRTFYYAMGWYRQAPGKERELVATITSGGSTNYADSVKGRFTISRDNAKNTVYVQMNSLKPEDTAVYYCNRDIPPGNYYKALYYYWGQGTQVTVSS	low polyreactivity
QVQLVESGGGLVQAGGSLRLSCAASGRTFYYARGWYRQAPGKERELVAAITSSSSTYSADSVKGRFTISRDNAKNTVYLQMNSLKPEDTAVYYCNAADDPYGSPSYGYDYWGQGTQVTVSS	low polyreactivity
QVQLVESGGGLVQAGGSLRLSCAASGRTFYYNGMGWYRQAPGKERELVAAITSGGTTSYADSVKGRFTISRDNAKNTVYLLMNCLKPEDTAVYYCNAECAPWGSAYGHDQYDYWGQGTQVTVSS	low polyreactivity

Sequence	polyreactivity (PSR sort gate)
QVQLVESGGGLVQAGGSLRLSCAASGRTFYYNVMGWYRQAPGKERELVAAISTGVSTNYADSVKGRFTISRDNAKNTVYLQMNSLKPEDTAVYYCNARSYRWYRPVYRYDYWGQGTQVTVSS	high polyreactivity
QVQLVESGGGLVQAGGSLRLSCAASGRTFYYYAMGWYIQAPGKEREFVASISYSGARTYYADSVKGRFTISRDNAKNTVYLQMNSLKPEDTAVYYCNRYASNYGYIDYWGQGTQVTVSS	high polyreactivity
QVQLVESGGGLVQAGGSLRLSCAASGRTFYYYAMGWYIQAPGKERELVATITKSSGSTSYADSVKGRFTISRDNAKNTVYLQMNSLKPEDTAVYYCAKVFRSGGVYRYDYWGQGTQVTVSS	high polyreactivity
QVQLVESGGGLVQAGGSLRLSCAASGRTFYYYAMGWYRQAPGKERELVAAISRGGGSTYYADSVKGRFTISRDNAKNTVYLQMNSLKPEDTAVYSWNKVYSTSSYDYWGQGTQVTVSS	high polyreactivity
QVQLVESGGGLVQAGGSLRLSCAASGRTFYYYAMGWYRQAPGKERELVAAISSNGGSTYADSVKGRYTISRDNAKNTVYLQMNSLKPEDTAVYYCNARFTYRWGMGYWGHGTQVTVSS	high polyreactivity
QVQLVESGGGLVQAGGSLRLSCAASGRTFYYYAMGWYRQAPGKERELVAAITSNGGSTYYADSVKGRFTISRDNAKNTVYLPMNSLKPEDTAVYYCAADTYWYLSPYDYWGQGTQVTVSS	low polyreactivity
QVQLVESGGGLVQAGGSLRLSCAASGRTFYYYAMGWYRQAPGKERELVARISRGGSTNYADSVKGRFTISRDNAKNTVYLQMNSLKPEDTAVYYCAKTISYTGRFWGYDYWGQGTQVTVSS	high polyreactivity
QVQLVESGGGLVQAGGSLRLSCAASGRTFYYYGMGWYRQAPGKERELVAAINRGDSTKYADSVKGRFTISRDNAKNTVYLQMNSLKPEDTAVYYCNARLRASFARFIYEYWGQGTQVTVSS	low polyreactivity
QVQLVESGGGLVQAGGSLRLSCAASGRTIADNAMGWYRQAPGKEREVVATISYSDSTTYYADSVKGRFTISRDNAKNTVYLQMNSLKPEDTAVYYCAAERLTHWGAFAAYDYWGQGTQVTVSS	low polyreactivity
QVQLVESGGGLVQAGGSLRLSCAASGRTIANNAMGWYRQAPGKERQLVAVITNSGRTYYADSVKGRFTISRDNAKNTVYLQMNSLKPEDTAVYYCAVRYFDRGGSEHPVTFYWGQGTQVTVSS	high polyreactivity
QVQLVESGGGLVQAGGSLRLSCAASGRTIAQYAMGWSRQAPGKERELVAAISSSGGSTYYADSVKGRFTISRDNAKNTVYLQMNSLKPEDTAVYYCAKYGTKAKQYDYWGQGTQVTVSS	high polyreactivity
QVQLVESGGGLVQAGGSLRLSCAASGRTIDHNTMGWYRQAPGKERELVAAISWSGGTTYYADSVKGRFTISRDNEKNTVYLQMNSLKPEDTAVYYCAADRSRGSYGYQYDYWGQGTQVSVSS	low polyreactivity
QVQLVESGGGLVQAGGSLRLSCAASGRTIDHYAMGWYRQAPGKDRELVAAISTTGGSTYYADSVKGRFTISRDNAMNTVYLQMNSLKPEDTAVYFCAARGLRTGGYWGQGTQVTVSS	high polyreactivity
QVQLVESGGGLVQAGGSLRLSCAASGRTIDHYAMGWYRQAPGKERELVAAISTTGGSTYYADSVKGRFTISRDNAKNTVYLQMNSLKPEYTAVYYCAARGLRTGGYWGQGTQVTVSS	high polyreactivity
QVQLVESGGGLVQAGGSLRLSCAASGRTIDPNAMGWYRQAPGKERELVAAITRTGVRTYYADSVKGRFTISRDNAKNTVYLQMNSLKPEDTAVYYCNRYGARSNDYWGQGTQVTVSS	low polyreactivity
QVQLVESGGGLVQAGGSLRLSCAASGRTIDRMLMGSYRQAPGKERELVAAITSGGRTNYADSVKGRFTISRDNAKNTVYLKMNSLKAEDTAFYYCARHGGRRPVSSKGNTYDYWGQGTQVTVLS	low polyreactivity
QVQLVESGGGLVQAGGSLRLSCAASGRTIDWYAMGWYRQAPGKVRELVAGITYSGGSTYYADSVKGRFTISRDIANKTVYFQMNSLKPEDTAVYYCAAAKSYRSGSWYEYWGQGTQVTVSS	high polyreactivity
QVQLVESGGGLVQAGGSLRLSCAASGRTIEGNVMGWYRQAPGKERELVAAITRTAGSTYYADSVKGRFTISRDNAKNTVYLQMNSLKPEDTAVYYCAVEGIYRWYDYSWYYTSTYDYWGQGTQVTVSS	low polyreactivity
QVQLVESGGGLVQAGGSLRLSCAASGRTIFYNAMGWYRQAPGKERELVAAINWRGGSTYYADSVKGRFTISRDIAKNTVYLQMNSLKPEDTAVYYCAARNVYVWYDYWGQGTQVTVSS	low polyreactivity
QVQLVESGGGLVQAGGSLRLSCAASGRTIGAYAMGWYRQAPGKEREFVAAITFGGGPTYYADSVKGRFTISRDNAKNTVYLQMNSLKPEDTAVYYCAKRIDLSFPYARYDYWGQGTQVTVSS	low polyreactivity

Reference: the nanobody polyreactivity screen of Harvey et al. (2022)
